For twelve sequences, protein production results are on record in a protein production outcome set (Wang et al. 2014).

The series can be described thus: label from the status in PepcDB records.
In the case of “MLNNKRLFTSESVTEGHPDKIADQVSDAILDAILKDDPNARVACETTVTTGMALIAGEISTTTYVDIPKVVRETIKEIGYTRAKYGYDYETMAILTAIDEQSPDIAQGVDKALEYRDKDSEEEIEATGAGDQGLMFGYATNETETYMPLAIYLSHQLAKRLSDVRKDGTLNYLRPDGKVQVTVEYDENDNPVRIDTIVVSTQHAEDVTLEQIQEDIKAHVIYPTVPENLINEQTKFYINPTGRFVIGGPQGDAGLTGRKIIVDTYGGYARHGGGCFSGKDPTKVDRSAAYAARYVAKNIVAAGLADQCEVQLAYAIGVAEPVSIAIDTFGTGKVSEGQLVEAVRKHFDLRPAGIIKMLDLKQPIYKQTAAYGHFGRTDVLFPWEKLDKVEELKDAVK”, the protein production entry is “failed”.

For “MLNPFEKLQIPPKANQTIDTMLKRLPKIGGTTVRDREIRRLKEYYERIKKYYDFVEQFPKIDELHPFYLEATRIMTDINKLRICLSVTKKTSVISMKILKKYINQIRKSPENESNRIMRQAFGRVSSVLRKSSECIDRVIDVAKELKKIQGIDPTLPTIVVAGPPNVGKSTLVSKISTAKPEIASYPFTTKEVHVGHVILDDFRIQVIDTPGILDRPEAERNRIERKATNAIRNLNGIIVFMFDSSISSVLSVEGQIELFREVKLLKKIVIPVINKIDEKYEEYYKKIVDFLLSEGNEWHEISAEKGIGIDKLKEELFNLVKSSGTNEVSRD”, the protein production result is “failed”.

Take “MLNQSNELNAWDRDHFFHPSTHMGTHARGESPTRIMAGGEGVTVWDNNGRKSIDAFAGLYCVNVGYGRQKIADAIATQAKNLAYYHAYVGHGTEASITLAKMIIDRAPKGMSRVYFGLSGSDANETNIKLIWYYNNVLGRPEKKKIISRWRGYHGSGVMTGSLTGLDLFHNAFDLPRAPVLHTEAPYYFRRTDRSMSEEQFSQHCADKLEEMILAEGPETIAAFIGEPILGTGGIVPPPAGYWEKIQAVLKKYDVLLVADEVVTGFGRLGTMFGSDHYGIKPDLITIAKGLTSAYAPLSGVIVADRVWQVLVQGSDKLGSLGHGWTYSAHPICVAAGVANLELIDEMDLVTNAGETGAYFRAELAKAVGGHKNVGEVRGDGMLAAVEFVADKDDRVFFDASQKIGPQVATALAASGVIGRAMPQGDILGFAPPLCLTREQADIVVSKTADAVKSVFANL”: the protein production entry is recorded as “not failed”.

For “MLNTFMFPGQGSQAKGMGGALFDRFADLTAQADAVLGYSIRALCVDDPRDELGRTQFTQPALYVVNALTYYAKCEDSGETPDFLAGHSLGEFNALLAAGCFDFETGLKLVARRAELMSQARDGAMAAIVNASREQIERTLDEHGLVDTAIANDNTPSQLVISGPAHEIARAEALFQHDRVRYLRLNTSGAFHSKFMRPAQQAFAAHLQSFRLADPAIPVISNVSARPYENGRVSEGLAQQIASPVRWCESIRYLLALAAERGEAIEFTELGHGDVLTRLVHTIRRQTPAPAAAATSARARPTPPGEPERPAQQTAAAPRASDSASASLGAAERVAAWNRDYPVGTRVRSSLIHDDVLETRTPATVLFGHRAAVYMKGYNGYFDLAEVTPA”, the protein production result is “not failed”.

With “MLPDDVNQADVLADVTAAFYRYEKALTGNDVAVLDELFWHDEKTVRYGAGENLYGIEEIRAFRLARPSAGLDRALRNTVITTYGHDMAVASTEFTRTGSTKIGRQMQTWVKMPEGWRIVAAHVSLMSE”, the protein production entry is on record as “not failed”.

On to “MLPKIIDLFSGCGGLALGFEKAGFDIVAGIELMPEACKTISYNLSWRYGKKETHICGDITEIEASVFKNSFGDEGCIVIGGPPCQAYSMAGRGKLRSLGEDRVNIKDARGYLYQDFLRFVFELEARAVVMENVPESTNFGGKNIPEIVCTELTKKGYKAYWTILNSADYGVPQVRERVFVVAIKGDEGKEIKLPNPTHRNEVDVLTQHQKRFEGYKQCQFFVEPNGTTDELKPWVTVGDAFSDLPEVFPTADSKYKLVSLNIEYPYKTEAQNEYQELMRTWYGKEGFGVSANAFRRNTRDFPIFERMQQGDNYIAATKIAEELFYEEAKLFGYEKDSEEYISLYNKMVPQYDKDKFENKWKRLDETKPSHTLVAHLAKDTYSHIHPIEPRGITVREAARLQSFPDDFFFDCSMGDAFKQIGNAVPPLLAYGVARTVLNTFEEE”, for which the protein production entry is reported as “failed”.

Take “MLPSRKTKRVFSCDFTPGRKRRRCVVVPSSVSPVPENTTGADLLDSIPDDLVISILCKLGSTSRCPADFINVLLTCKRLKGLAMNPIVLSRLSPKAIAVKAHNWSEYSHRFLKRCVDAGSLEACYTLGMIRFYCLQNRGNGASLMAKAAISSHAPALYSLAVIQFNGSGGSKNDKDLRAGVALCARAAFLGHVDALRELGHCLQDGYGVPQNVSEGRRFLVQANARELAAVLSSGIQARSTWLSLSQPPPPVVPNHGQQTCPLLSDFGCNVPAPETHPANRFLADWFAVRGGDCPGDGLRLCSHAGCGRPETRKHEFRRCSVCGVVNYCSRACQALDWKLRHKMDCAPVQRWLEEGDGGEGNVQIDGNGNGDNVLLPMS”: the protein production result was “failed”.

With “MLPVLETTAHSPLTIVWFVLITVLWVGFFFLEGFDFGVAMLLPFLGRDDKDRRLMVNTIGPTWDGNEVWLLTAGGATFAAFPGWYATMFSGLYLPLLLVLLGLIVRGVAFEYRSKNPSSSWRNAFDWMATIGSFLPTLVLGVGFANFVRGLAVGPHSTPDGGTAPLVTTSFWGLFTPFALIGGILFVVLFCAHGANFVALKTMGDMHDRARKTSAKLGWIATVVALVWALMFNIMYVTRDGRQVLTWIICLLVVVLLAAGSAVVAKGREGLAFLCTALGIALMIVACMFAMYGNLGYRPSGIAFDMWIASATGRTLKIMTISACVFVPIVLAYQVWSYWVFRKRLTREAIPDTAVAA”, the protein production entry was “failed”.

Consider “MLQHRCPVRRILVHYIAHWSRLRSILPTFAAIVRRPFRVCKTMNQPSSKPTPAVTFRLSKAELVLVFITMLWGGTFLLVHNVMTVSGPMFFVGLRFAAAALFVGVVSARALPGLTFTELKAGMLIGVSIMLGYGLQTMGLQTISSSQSAFITALYVPFVPLLQWLVLGRRPGLMPSMGICLAFIGLMLLAGPEGGSLRFSEGELVTLISAVAIAGEIILISRYAGQVDVRRVTVVQLATASLLAFLMIVPTQERIPDFSWLLLASAVGLGAMSAVIQVAMNWAQKSVSPTRATLIYAGEPVWAGIVGRLAGERLPGVALLGGLLIVVAVVVSELKVRRPRETVETRDVQNPGERQAGL”, for which the protein production entry is “failed”.

Regarding “MLQIIVPMAGAGSRFAVAGYTDPKPLIPVHGVPMIKVVIDNLTPDCPHRFIFICQAEQVAAYGLREKLNAWAPGCGIVELGGLTGGAACTVYAARHLINYDQQVMIANSDQYVDVDINAYLHAMNECDAAGLIMTMKASDPKWSFVGFDSQGHINRVVEKEVISDEATVGIYNFRSGGQLVSAIEAMVLKDLRVNGEFYVAPAYNELIEQGAKVIHYSIGAEGHGMYGLGIPVDLNLFLSLPLSRQAASGVGNLEHHHHHH”, the protein production result is listed as “failed”.

Turning to “MLQKDPCLDDILENSEKLENNSNKKNIDSIDTIKLSDIIEKMIEINSIVRIEKIFEEKIVSQNPVVNVVVNDGSARGLLSLWSEQISLLNELNEGDAILIENAHAPKKYKDRIHLALSKSGKISKIESDLPTIDELLKKSSAQRNDFSRKSISELKEGIGAELRGLIVAIHSKEPYFPVCDKCNKKMTLKKGYAVCKCGNKVDEEDENLKWLFLCTCTLDDGSGTIRVTLNNNTNYLDLEELKKIIIDDEEILDVLNNKLLGLDILTSGFTIYDEYLKDTAFRCNNWNKIDIMEEFNKKLKGLEHHHHHH”, the protein production result was “not failed”.

For “MLQLDHRHSIELHFAIPVSLPGCLSGAEVVADWPLDARSSGRQTSVSEAAGAGPVDRMNKEHYPFRMFLLGPFALVDAGGRSVAPKSKKAQALLAMLALSTRGSRSRIWLRDKLWSDRSDDQAAASLRQALLDIHKSLGPARDLLIADKNTVWLDTDRLLLDTDLMIRTERSPDQVTDELLEGIDIRDPEFEDWLALERQNWYRRLDEGQVHDVFEPRQQPSRDIAKHSALLPLTGAPDTSRTGKPVDIASSGPYGRRVGGDWQWMMALQSPIVVGAGEGGQIAATRFQNLIAKAIIDGLGFGVTDLSFTLPHIEENEQQISLPICLQLRLTFDGDMVLIELVMKHLINNRIHWLGSQAINRTQFERGEFGIAAALISQAVDQLAYFQEIQATDSRLSQDGLLIDAVNAIFRLSRDDLDNAERRLEEQIQYQPRSSTFAWLSFIRTFQVGQRFNALDAHLIEEAQAYARKALELDPQNSVSLALVGHVHSFLFGEYDYAANLFEKSIRLNPALPLGWDLYAMLHCYAGQPDKAVAMARWVQELGVYSPHKYYFDTTKCIAAALAGDHAAAITAGEEALRARPNFNSLLRYLASSHAHSNDLGSARHYLQRLEAVEGGFSINDFRGSGYPLLDTGGGQILIDGLLKAGAKLR”, the protein production result is “failed”.
